Experimental data: US20090022728A1 (RINAT NEUROSCIENCE, published 2009)
Residue numbers refer to the chain shown, from its start.

B1: 9TL variant M28 Fab (Fab, V domains shown)
VH: QVQLVQSGAEVKKPGASVKVSCKASGYYTEAYYIHWVRQAPGQGLEWMGRIDPATGNTKYAPRLQDRVTMTRDTSTSTVYMELSSLRSEDTAVYYCASLYSLPVYWGQGTTVTVSS
VL: DVVMTQSPLSLPVTLGQPASISCKSSQSLLYSDAKTYLNWFQQRPGQSPRRLIYQISRLDPGVPDRFSGSGSGTDFTLKISRVEAEDVGVYYCLQGTHYPMLFGQGTRLEIKR
notes: Fab; human IgG2 CH1 and kappa CL
B2: 9TL variant W8 Fab (Fab, V domains shown)
VH: B1 VH
VL: B1 VL with Y31H, A34S, K35A, M101V, L102T
notes: as for B1
B3: 9TL variant M46 Fab (Fab, V domains shown)
VH: B1 VH with V104C
VL: B1 VL with M101V
notes: as for B1
B4: 9TL variant M32 Fab (Fab, V domains shown)
VH: B1 VH with L99I
VL: B1 VL with M101V
notes: as for B1
B5: 9TL variant M50 Fab (Fab, V domains shown)
VH: B1 VH with V104F
VL: B1 VL with M101V
notes: as for B1
B6: 9TL variant M42 Fab (Fab, V domains shown)
VH: B1 VH with L102E
VL: B1 VL with M101V
notes: as for B1
B7: 9TL variant M39 Fab (Fab, V domains shown)
VH: B1 VH with L102S
VL: B1 VL with M101V
notes: as for B1
B8: 9TL variant M30 Fab (Fab, V domains shown)
VH: B1 VH
VL: B1 VL with M101V, L102V
notes: as for B1
B9: 9TL variant M37 Fab (Fab, V domains shown)
VH: B1 VH with L102A
VL: B1 VL with M101V
notes: as for B1
B10: 9TL variant M56 Fab (Fab, V domains shown)
VH: B1 VH with Y105V
VL: B1 VL with M101V
notes: as for B1
B11: 9TL variant M48 Fab (Fab, V domains shown)
VH: B1 VH with V104S
VL: B1 VL with M101V
notes: as for B1
B12: 9TL variant W1 Fab (Fab, V domains shown)
VH: B1 VH
VL: B1 VL with Y31A, A34S, M101V, L102T
notes: as for B1
B13: 9TL variant M31 Fab (Fab, V domains shown)
VH: B1 VH with L99V
VL: B1 VL with M101V
notes: as for B1
B14: 9TL variant M29 Fab (Fab, V domains shown)
VH: B1 VH
VL: B1 VL with M101V, L102S
notes: as for B1
B15: 9TL variant M38 Fab (Fab, V domains shown)
VH: B1 VH with L102V
VL: B1 VL with M101V
notes: as for B1
B16: 9TL variant M54 Fab (Fab, V domains shown)
VH: B1 VH with Y105S
VL: B1 VL with M101V
notes: as for B1
B17: 9TL variant M51 Fab (Fab, V domains shown)
VH: B1 VH with Y105H
VL: B1 VL with M101V
notes: as for B1
B18: 9TL variant M55 Fab (Fab, V domains shown)
VH: B1 VH with Y105I
VL: B1 VL with M101V
notes: as for B1
B19: 9TL variant M52 Fab (Fab, V domains shown)
VH: B1 VH with Y105F
VL: B1 VL with M101V
notes: as for B1
B20: 9TL variant W5 Fab (Fab, V domains shown)
VH: B1 VH
VL: B1 VL with Y31H, K35A, M101V, L102T
notes: as for B1
B21: 9TL variant M43 Fab (Fab, V domains shown)
VH: B1 VH with V104I
VL: B1 VL with M101V
notes: as for B1
B22: 9TL variant M40 Fab (Fab, V domains shown)
VH: B1 VH with L102T
VL: B1 VL with M101V
notes: as for B1
B23: 9TL variant M36 Fab (Fab, V domains shown)
VH: B1 VH with L102R
VL: B1 VL with M101V
notes: as for B1
B24: 9TL variant M49 Fab (Fab, V domains shown)
VH: B1 VH with V104N
VL: B1 VL with M101V
notes: as for B1
B25: 9TL variant M41 Fab (Fab, V domains shown)
VH: B1 VH with L102Q
VL: B1 VL with M101V
notes: as for B1
B26: 9TL variant M53 Fab (Fab, V domains shown)
VH: B1 VH with Y105W
VL: B1 VL with M101V
notes: as for B1
B27: 9TL variant M35 Fab (Fab, V domains shown)
VH: B1 VH with S101G
VL: B1 VL with M101V
notes: as for B1
B28: 9TL variant M47 Fab (Fab, V domains shown)
VH: B1 VH with V104Q
VL: B1 VL with M101V
notes: as for B1

Target: T1, biotinylated Aβ1-40 peptide (biotinylated (N-biotinylated in Example 7))
T1 construct: captured on streptavidin (SA) chip; also called Biotinylated Aβ peptide 1-40; Aβ1-40 on SA chip
Assay: SPR, Fab over Aβ1-40 on SA chip
Protocol: (§1) Affinities of 9TL Fab fragment and its variants Fab fragments were determined by Surface Plasmon Resonance (SPR) system (BIAcore 3000™, BIAcore, Inc., Piscaway, N.J.). SA chips (streptavidin) were used according to the supplier's instructions. Biotinylated Aβ peptide 1-40 was diluted into HBS-EP (10 mM HEPES pH 7.4, 150 mM NaCl, 3 mM EDTA, 0.005% P20) and injected over the chip at a concentration of 0.005 mg/mL. Using variable flow time across the individual chip channels, two ranges of antigen density were achieved: 10-200 response units (RU) for detailed kinetic studies and 500-600 RU for concentration studies and screening. […] HBS-EP buffer was used as running buffer for all the BIAcore assays. […] The concentrations of the Fab proteins were determined by ELISA and/or SDS-PAGE electrophoresis using a standard Fab of known concentration (determined by amino acid analysis). Kinetic association rates (kₒₙ) and dissociation rates (koff) were obtained simultaneously by fitting the data to a 1:1 Langmuir binding model (Karlsson, R. Roos, H. Fagerstam, L. Petersson, B. (1994). Methods Enzymology 6. 99-110) using the BIAevaluation program. Equilibrium dissociation constant (KD) values were calculated as koff/kₒₙ.
(§2) All amino acid substitutions of the variants shown in Table 3 are described relative to the sequence of 9TL. KD and other kinetic parameters were determined by BIAcore analysis described above with Aβ₁₋₄₀ immobilized on SA chip.

T1 sequence (peptide, as listed by the source): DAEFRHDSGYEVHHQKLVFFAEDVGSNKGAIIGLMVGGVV

koff [s⁻¹]	Binder
0.014	B1
0.0038	B2
0.02	B3
0.02	B4
0.027	B5
0.015	B6
0.0023	B7
0.00068	B8
0.00092	B9
0.0035	B10
0.026	B11
0.009	B12
0.01	B13
0.00076	B14
0.0015	B15
0.0024	B16
0.00086	B17
0.003	B18
0.0013	B19
0.004	B20
0.0003	B21
0.0045	B22
0.0009	B23
0.026	B24
0.01	B25
0.0013	B26
0.009	B27
0.02	B28

Target: T1, biotinylated Aβ1-40 peptide
Assay: SPR, Fab over Aβ1-40 on SA chip; KD=koff/kon
Protocol: as §1, §2

Kd [nM]	Binder
44	B1
11.9	B2
62.9	B3
62.9	B4
84.9	B5
47.2	B6
7.23	B7
2.14	B8
2.89	B9
11	B10
81.8	B11
28.3	B12
31.4	B13
2.39	B14
4.72	B15
7.55	B16
2.7	B17
9.43	B18
4.09	B19
12.6	B20
0.94	B21
14.2	B22
2.83	B23
81.8	B24
31.4	B25
4.09	B26
28.3	B27
62.9	B28

Target: T1, biotinylated Aβ1-40 peptide
Assay: SPR, Fab over Aβ1-40 on SA chip; kon may be assumed = 9TL (footnote 2)
Protocol: as §1, §2

kon [M⁻¹ s⁻¹]	Binder
318000	B1
318000	B2
318000	B3
318000	B4
318000	B5
318000	B6
318000	B7
318000	B8
318000	B9
318000	B10
318000	B11
318000	B12
318000	B13
318000	B14
318000	B15
318000	B16
318000	B17
318000	B18
318000	B19
318000	B20
318000	B21
318000	B22
318000	B23
318000	B24
318000	B25
318000	B26
318000	B27
318000	B28
